This data set has as its system RSG1.2 peptide (synthetic). Put plainly: FP. Conditions: about fifty fold greater RNA concentration than RRE1 required for similar polarization; 150 mM KCl, 5 mM MgCl2.

The sequence “GGCUGGUAUGGGCGCAGCGUCAAUGACGCUGCGCCCAGGCCAGCC [RRE2 hairpin]” came in with a fold-higher RNA concentration than RRE1 for similar polarization of 50 fold.

The values are drawn from US20030148343.
